Assay results taken from article PMC7116788 (Nature microbiology, 2021).
Like-named read-outs stand apart in the source and are kept apart here.

Legend:
cryo-EM structure [1] = molecular target: the molecule itself; assay: cryo-EM structure
cryo-EM structure [2] = molecular target: the molecule itself; assay: cryo-EM structure; remark: listed apart in the source

B1: GldL (Flavobacterium johnsoniae) (natural protein)
chain: MALLSKKVMNFAYGMGAAVVIVGALFKITHFEIGPLTGTVMLSIGLLTEALIFALSAFEPVEDELDWTLVYPELANGQARKKEAKAETATDAQGLLSQKLDAMLKEAKVDGELMASLGNSIKNFEGAAKAISPTVDSIAGQKKYAEEMSMAAAQMESLNSLYKVQLESASRNAQANSEIAENAAKLKEQMASMTANIASLNSVYGGMLSAMSNKG
For B1, the “stoichiometry N” value (cryo-EM structure [1]) was 5.

B2: PorL (Porphyromonas gingivalis ATCC 33277) (natural protein, UniProt B2RLE9 1-309, looked up)
chain: MGHYRRYKNILEMYLASHKGRRLLNIVYSWGAAVVILGALFKLLHLPMGNEMLFVGMITEFLVFFISGFEKPAMEYHWEEVFPELDSKNPMDRREMEQRREYLREKAKEAAAYAERPSSVRLASASLGTQPQEQPKPATPFQSQLTGILPEEQIQRLSEGIDKLAEAGEQLARIGRTAAAMTESYEQMQADQEGLRLNSQSYIQQMESLSRNISGLNTIYEIQLKGISSQIDTIDRINRGLAHIRDMYDNSVIDSSSFRNENERMARQLTQLNEVYARLLQALTTNVGLPGMPGNFGASNPSSSGSSPL
B2: binds (cryo-EM structure [2]).

B3: PorM (Porphyromonas gingivalis ATCC 33277) (natural protein, UniProt B2RLE8 1-516, looked up)
chain: MAVGSNGNANRQKMINLMYLVFIAMMALNVSSEVLDGFDKVDKSLTSSIDGSDKRNNLVLSELNTAYRTNPEKVKVWYERSLVLQKEADSLCTFIDDLKLAIARESDGKDAKVNDIRRKDNLDASSVVMLNPINGKGSTLRKEVDKFRELVATLMTDKAKLKLIEQALNTESGTKGKSWESSLFENMPTVAAITLLTKLQSDVRYAQGEVLADLVKSVDVGDYRVNSITAQVIPQSQIVMSGDTYKANIVLSSVDTTQRPDVFVNGKLLSPENMGLFTATAGAPGTYPVKGYIEMMGNDGVKIRRDFESEYFVTEPMASVAPTMMNVLYAGIDNPINIAVPGVAQQNVSATINNGTLTRRGNLWIARPTKVGSEAIISVTAQSGGRTIQMAKTTLRVRALPDPLPYIEYKDVQGNTKRFKGGRLGKREILAAGGIKAALDDDLLEVNYTVVKFQLVFYDSMGNSIPEVSDGASFSERQKRQIQNLGKGKRFYVTEVIARGPDGIERKIPAIEVIVN
In the case of B3, the “stoichiometry N” value (cryo-EM structure [2]) is reported as 2.
